# Test results taken from the nanobody polyreactivity screen of Harvey et al. (2022).
# Assay: yeast display, Sf9 membrane polyspecificity reagent, FACS + sequencing; frameworks hold sequencing errors
# Procedure, shortened: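 Using colony PCR, genes from sorted yeast display clones were amplified, then sequenced on MiSeq at 2 × 250 and filtered by CDR length. The clones had been stained with 10% biotinylated, detergent-solubilized Sf9 membrane reagent for 1 hour at 4 °C and sorted by FACS into low and high (top ~1%) gates on anti-HA and streptavidin fluorescence. Polyreactivity labels come from the gate of origin.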
row,Sequence,polyreactivity (PSR sort gate)
1,QVQLVESGGGLFQAGGSLRLSCAASGIIFQRNDMGWYRQAPGKERELVANIRDGGITYADSVKGRFTISRDNAKNTVYLQMNSLKPEDTAVYYCARDDTSPGYCDQSSNAAYYYWGQGTQVTVSS,low polyreactivity
2,QVQLVESGGGLVQAGGSLRLSCAASGFIFAASALGWSRQAAGKEREFVAAISNSGTSTYYADSVKGRFTISRDNAKNTVYLQMNSLKPEDTAVYYCAAPWSTAYDYWGQGTQVTVSS,high polyreactivity
3,QVQLVESGGGLVQAGGSLRLSCAASGSIFRTYAMGWYRQAPGKERELVAAIRRSGGRTYYADSVKGRFTISRDNAKNTVYLQMNSLKPEDTAVYYCNKRVSKQSKYDYWGQGTQVTVSS,high polyreactivity
4,QVQLVESGGGLVQAGGTLRLSCAASGRISTHNAMGWYRQAPGKERELVAAITSGGRTTYADSVKGRFTISRDNAKNTVYLLMNSLKPEDTAVYYCNADTGLGSLDFDKRDYWGQGTQVTVSS,low polyreactivity
5,QVQLVESGGGLVQAGGSLRLSCAASGFTFGTYAMGWYRQAPGKERELVAAINGNGGSTYYADSVKGRFTISRDNAKNTVYLQMNSLKPEDTAVYYCAAARRSGSTRRDYWGQGTQVTVSS,high polyreactivity
6,QVHLVESGGGLVQAGGSLRLSCASSGSTFRSYGMGWYRPAPGKERELVAAISSSGGSTYYADSVKGRFTISRDNAKNTVYLQMNSLKPEDSAVYYCAAGSRLVSARLYYWGQGTQVTVSS,high polyreactivity
7,QVQLVESGGGLVQAGGSLSLSCAASGRIFTYYAMGWYRQAPGKERELVAAINWGVVTTYYADSVKGRFTISRDNAKNTVYLQMNSLKPEDTAVYYCAADWFAANYYVNPVSALDYWGQGTQVTVSS,low polyreactivity
8,QVQLVESGGGLVQAGGSLRISCAASGRTFGSYSMGWYRQAPGNEREEVAAISLSAGSTYYADYVKGRFTISRDNAKNTVYLQMNRLKAEDTAVYYCAAGTKWYSQVYIYFYWGQGTQVTVSS,low polyreactivity
9,QVQLVESGGGLVQAGGSLRLSCAASGFTYSTNAMGWYRQAPGTERELVAAISGSGGSTYYADSVKGRFTISRDNAKNTVYLQMNSLKPEDTAVYYCAARCPYYSWGRYEYYYWGQGTQVTLSS,high polyreactivity
10,QVQLVESGGGLFQAGGSLRLSCAASGFTFDYYAMGWYRQAPGKERELVADINRSGGSSYYADSVKGRFTISRDNAKNTVYLQMNSLKPEDTAVYYCNARVTPFFYHYPRDYYYWGQGTQVTVSS,high polyreactivity
11,QVQLVESGGGLVQAGGSLRLSCAASGITFVRYAMGWYRQAPGKERELVAAINFSGGNTYYADSVKGRFTISRDNAKNTVYLQMNSLKPEDTAVYYCNAKRNYVRGRQGDWYIGYGYWGQGTQVTVSS,high polyreactivity
12,QVQLVESGGGLVQAGGSLRLSCAASGFTFYVYVMGWYRPAPGKERELVAGISRGGSTYYADSVKGRFTISRDTAKNTVYLQMNSLKPEDTAVYYCNARRAWSSTYGYWGQGTQVTVSS,high polyreactivity
13,QVQLVESGGGIVQAGGSLRLSCAASGRTFVSYAKGWYRQAPGKERELVAAISSSGGRTYYADSVKGRFTISRDNAKNTVYLQMNSLKPEDTAVYYCNAVRFISARYDYWGQGTQVTVSS,high polyreactivity
14,QVQLVESGGGLVQAGGSLRLSCAASGRTFEGNAMGWSRQAPGKERELVAAISTSGGRTYYADSVKGRFTISRDNAKKSVYLQMNSLKPEDTAVYYCATSFYVYPTYYILDYWGQGTQVTVSS,low polyreactivity
15,QVQLVESGGGLVQAGGSLRLSCAASGFTFRYYAMVWYRQAPGKERELVAAITSGDSTYYADSVKGLFTISRDNAKNTVYLQMNSLKPEDTAVYYCAAYSWLFEGYEYWGQGTIVTVSS,high polyreactivity
16,QVQLVESGGGLVQAGGSLRLSCAASGRTFSVYTMGWYRQAPGKERELVAVISSGGGTDYADSVKGRFTISRDNAKNTVYLQMNSLKPEDTAVYYCAAELRYYLYDVVYIVTYDYWGQGTQVTVSS,low polyreactivity
17,QVQLVESGGGLVQAGGSLRLSCAASGLILYTYAMGWSRQAPGQVRELVAAINSGGRTYYADAVKGRFTISRDNAKNTVYLQMNSLKPEDTAVYYCAADYGSRVRGFNYWGQGTQVTVSS,low polyreactivity
